These results are taken from patent US20250084172A1 (23ANDME, published 2025).

What is called EC50 is the concentration needed to bring the measured effect to its halfway point. Lower therefore signals an effect from little substance. By IC50 is commonly meant the concentration needed to halve the response being measured. A high value points to weaker potency. By Kd is commonly meant the equilibrium constant for the complex coming apart. A word on the koff: it is the first-order rate constant of dissociation. Low readings indicate slow dissociation, high ones fast dissociation. For orientation: kon means the second-order rate constant of association.

B2: human ULBP6 displayed on M13 phage (ULBP6-HA-pIII) (other)
chain: RRDDPHSLCYDITVIPKFRPGPRWCAVQGQVDEKTFLHYDCGNKTVTPVSPLGKKLNVTMAWKAQNPVLREVVDILTEQLLDIQLENYTPKEPLTLQARMSCEQKAEGHSSGSWQFSIDGQTFLLFDSEKRMWTTVHPGARKMKEKWENDKDVAMSFHYISMGDCIGWLEDFLMGMDSTLEPSAGAPLAMSSGYPYDVPDYA
notes: also called ULBP6 phage; not shown: M13 minor coat protein pIII

For test [1], the target named is B2. Description: phage ELISA: plate coated with the antibody, ULBP6 phage titrated in 3-fold steps from 1.0 O.D./mL, HRP anti-M13 detection, O.D. 450. A general note: In an ELISA, binding on a coated surface is turned into a signal by an enzyme label.
Test [2] addresses T1, human soluble ULBP6 haplotype 02 (hULBP6_02) (human, UniProt Q5VY80 26-218).
T1 chain: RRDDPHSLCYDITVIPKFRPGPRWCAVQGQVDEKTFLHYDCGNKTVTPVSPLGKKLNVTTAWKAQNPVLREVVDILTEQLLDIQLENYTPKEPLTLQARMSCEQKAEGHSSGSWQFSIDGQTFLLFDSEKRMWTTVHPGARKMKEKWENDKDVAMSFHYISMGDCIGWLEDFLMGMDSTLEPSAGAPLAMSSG
Kind of test: cell-based or functional assay.

For test [3], the target named is T2, cell surface ULBP6_02 on PANC02.13 cells (human, UniProt Q5VY80 26-218).
T2 construct: whole, on cells; also called cell surface ULBP6 (PANC02.13)
T2 chain: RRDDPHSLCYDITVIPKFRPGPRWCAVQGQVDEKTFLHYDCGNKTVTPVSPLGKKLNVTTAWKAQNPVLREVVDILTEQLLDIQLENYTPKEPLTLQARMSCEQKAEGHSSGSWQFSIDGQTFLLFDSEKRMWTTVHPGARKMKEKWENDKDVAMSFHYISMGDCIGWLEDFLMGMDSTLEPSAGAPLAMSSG
Description: flow cytometry on PANC02.13 cells, anti-hFc-APC detection, average of 2 replicates. (Flow cytometry measures light scatter and fluorescence of single cells or particles in a stream.)

In test [4] the target is T3, cell surface ULBP6_01 on COV644 cells (human, UniProt Q5VY80 27-218).
T3 construct: whole, on cells; also called cell surface ULBP6 (COV644)
T3 chain: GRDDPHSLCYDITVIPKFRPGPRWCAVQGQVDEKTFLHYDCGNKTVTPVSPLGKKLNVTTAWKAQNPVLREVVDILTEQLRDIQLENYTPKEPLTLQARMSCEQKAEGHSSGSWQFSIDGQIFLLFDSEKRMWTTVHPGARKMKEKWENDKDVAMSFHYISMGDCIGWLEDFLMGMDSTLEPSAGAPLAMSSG
Description: flow cytometry; blocking of hNKG2D-mFc binding to COV644 cells, average of 2 replicates.

The target of test [5] is T3, cell surface ULBP6_01 on COV644 cells. Description: flow cytometry on COV644 cells, anti-hFc-APC detection, average of 2 replicates.
Test [6] has as its target T1, human soluble ULBP6 haplotype 02 …. Kind of test: cell-based or functional assay.
Test [7] deals with T4, cynomolgus soluble ULBP2/6 (cULBP2/6) (cynomolgus, UniProt Q5VY80 28-217 (human entry), limits assumed).
T4 construct: also called cyno ULBP6; Cyno-cULBP2/6
T4 chain: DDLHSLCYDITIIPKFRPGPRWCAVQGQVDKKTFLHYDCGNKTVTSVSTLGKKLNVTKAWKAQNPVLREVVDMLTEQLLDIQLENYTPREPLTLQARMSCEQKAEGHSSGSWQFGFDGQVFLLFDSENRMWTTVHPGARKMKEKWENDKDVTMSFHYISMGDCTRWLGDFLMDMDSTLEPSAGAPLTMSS
Kind of test: SPR (BIACORE 8K, 37 C); antibody captured on Protein A, soluble ULBP injected.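 Further: ligand injected as threefold dilution series in HBS-P (highest 10 or 50 nM), reference-cell and buffer-subtracted sensorgrams fitted with a 1:1 Langmuir model for on and off rates.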 On the technique in general: Surface plasmon resonance follows binding to a sensor surface in real time, without labels.

Test [8] deals with T1, human soluble ULBP6 haplotype 02 …. The test is described as above.
Test [9] deals with T5, human soluble ULBP2 (hULBP2) (human, UniProt Q9BZM5 26-216).
T5 construct: also called sULBP2
T5 sequence: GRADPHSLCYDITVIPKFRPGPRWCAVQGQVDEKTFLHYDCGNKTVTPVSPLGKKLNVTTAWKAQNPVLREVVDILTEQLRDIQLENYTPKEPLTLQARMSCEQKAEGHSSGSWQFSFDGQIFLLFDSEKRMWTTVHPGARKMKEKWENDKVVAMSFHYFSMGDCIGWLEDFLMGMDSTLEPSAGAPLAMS
Described as above.

Test [10] has as its target T6, cynomolgus soluble ULBP5 (cULBP5) (cynomolgus).
T6 construct: also called Cyno-cULBP5
T6 chain: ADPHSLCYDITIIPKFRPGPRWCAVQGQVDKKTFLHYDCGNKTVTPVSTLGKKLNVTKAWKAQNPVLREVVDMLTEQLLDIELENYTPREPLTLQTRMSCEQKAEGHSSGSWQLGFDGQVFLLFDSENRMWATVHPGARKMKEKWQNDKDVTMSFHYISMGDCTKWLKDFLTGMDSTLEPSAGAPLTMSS
The test is described as above.

For test [11], the target named is T7, human soluble ULBP6 haplotype 01 (hULBP6_01) (human, UniProt Q5VY80 27-218, limits assumed).
T7 construct: also called sULBP6_01
T7 chain: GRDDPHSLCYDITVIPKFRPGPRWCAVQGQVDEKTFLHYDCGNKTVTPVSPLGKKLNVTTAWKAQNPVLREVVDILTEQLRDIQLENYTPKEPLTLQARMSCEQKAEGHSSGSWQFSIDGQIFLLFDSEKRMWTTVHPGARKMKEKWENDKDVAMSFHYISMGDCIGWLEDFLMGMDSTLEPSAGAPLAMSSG
Described as above.

In test [12] the target is hNKG2D-Fc (human NKG2D 78-216 with C-terminal long huFc-Flag tag) (human). Description: phage ELISA: plate coated with the ULBP6 receptor NKG2D (PUR4928, construct not stated), phage titrated in 3-fold steps from 1.0 O.D./mL, HRP anti-M13 detection, O.D. 450.
In another test the target is anti-HA antibody. Description: phage ELISA: plate coated with anti-HA antibody, phage titrated in 3-fold steps from 1.0 O.D./mL, HRP anti-M13 detection, O.D. 450.
The target of test [13] is T1, human soluble ULBP6 haplotype 02 …. Description: Biacore binding to ULBP6_02 (SPR).

Chain of hNKG2D-Fc (human NKG2D 78-216 with C-terminal long huFc-Flag tag) (human) (chain, as listed by the source limits assumed): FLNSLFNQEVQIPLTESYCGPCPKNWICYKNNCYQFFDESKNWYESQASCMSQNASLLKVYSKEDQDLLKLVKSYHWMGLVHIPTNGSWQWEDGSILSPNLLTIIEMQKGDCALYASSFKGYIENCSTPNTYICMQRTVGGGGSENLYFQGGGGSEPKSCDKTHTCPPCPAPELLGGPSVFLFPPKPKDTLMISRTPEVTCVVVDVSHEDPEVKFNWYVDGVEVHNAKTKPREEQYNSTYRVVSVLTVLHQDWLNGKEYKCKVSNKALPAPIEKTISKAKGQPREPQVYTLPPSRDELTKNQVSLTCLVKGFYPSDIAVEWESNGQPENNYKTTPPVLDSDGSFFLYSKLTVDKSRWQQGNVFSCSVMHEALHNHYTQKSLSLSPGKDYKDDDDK

B1: humanized 7B3 (h7B3), Fc version not stated (antibody, V domains shown)
VH: EVQLVESGGGLVQPGGSLRLSCAASGFTFSTYGFHWVRQAPGKGLEWVAYISSNSGTIDYADTVKGRFTISRDNAKNSLYLQMNSLRAEDTAVYYCARQGYGFDNWGQGTTVTVSS
VL: DIQLTQSPSSLSASVGDRVTITCSASSRVSYMNWYQQKPGKSPKIWVYGISNLASGVPSRFSGSGSGTDFTFTISSLQPEDIATYYCQQRSSHPLTFGGGTKVEIK
notes: Recombinant humanized antibody, hIgG1 backbone with kappa light chain; also called hu7B3; PUR3922
In the case of B1, the “EC50 (read off the curve)” value in test [1] was ~0.006 O.D. (phage). Further, in test [2], the “EC50 (read off the curve); NKG2D MFI on primed PBMCs with 50 nM sULBP6_02” value is about 20 nM. For the same molecule, the EC50 stood at 1.97 nM in test [3] and 1.93 nM in test [5]. In test [4], the IC50 was 0.17 nM. Besides, the “EC50 (read off the curve); IFNg secretion of primed PBMCs on plate-bound MICA with 50 nM sULBP6_02” value in test [6] is about 1 nM. Besides, the Kd was found to be 0.377 nM in test [7]; 0.255 nM in [8]; 0.673 nM in [9]; 6.13 nM in test [10]; 0.263 nM in [11]. Besides, the koff in [7] worked out at 0.000542 s⁻¹; in test [8], 0.000379 s⁻¹; in test [9], 0.000507 s⁻¹; in test [10], 0.0034 s⁻¹; in test [11] it was 0.000382 s⁻¹. Besides, the kon in [7] was 1.44e+06 M⁻¹ s⁻¹; in test [8], 1.48e+06 M⁻¹ s⁻¹; in test [9] it was 753000 M⁻¹ s⁻¹; in test [10], 554000 M⁻¹ s⁻¹; in [11], 1.45e+06 M⁻¹ s⁻¹.

As to B2, the “EC50 (read off the curve)” value (in [12]; in the test with anti-HA antibody) was ~0.01 O.D. (phage) throughout.

B3: humanized 8E8 (h8E8), Fc version not stated (antibody, V domains shown)
VH: QVQLVQSGAEVKKPGSSVKVSCKASGYTFTTYGITWVRQAPGQGLEWIGEIYPGTATSYSNERFKGRATLTADRSTSTAYMELSSLRSEDTAVYFCARRGTYGTYEWYFDVWGRGTLVTVSS
VL: DIQMTQSPSSLSASVGDRVTITCRASENIYSHLAWYQQKPGKSPKLLVYAATNLADGVPSRFSGSGSGTDYTLTISSLQPEDFATYYCQHFWGTPWTFGGGTKVEIK
notes: also called hu8E8; PUR3924
Turning to B3, the “IC50 (read off the curve); fall of NKG2D MFI on primed PBMCs with 50 nM sULBP6_02” value in [2] was about 3 nM. Besides, binding in [13] was characterised by a dissociation constant (Kd) of 1.56 nM.
